Earlier results in PMC3046808.
pKd: −log10 of the molar value.

Target: Gag (Human immunodeficiency virus 1) (UniProt O93182)

Gag, sequence (O93182 2-500): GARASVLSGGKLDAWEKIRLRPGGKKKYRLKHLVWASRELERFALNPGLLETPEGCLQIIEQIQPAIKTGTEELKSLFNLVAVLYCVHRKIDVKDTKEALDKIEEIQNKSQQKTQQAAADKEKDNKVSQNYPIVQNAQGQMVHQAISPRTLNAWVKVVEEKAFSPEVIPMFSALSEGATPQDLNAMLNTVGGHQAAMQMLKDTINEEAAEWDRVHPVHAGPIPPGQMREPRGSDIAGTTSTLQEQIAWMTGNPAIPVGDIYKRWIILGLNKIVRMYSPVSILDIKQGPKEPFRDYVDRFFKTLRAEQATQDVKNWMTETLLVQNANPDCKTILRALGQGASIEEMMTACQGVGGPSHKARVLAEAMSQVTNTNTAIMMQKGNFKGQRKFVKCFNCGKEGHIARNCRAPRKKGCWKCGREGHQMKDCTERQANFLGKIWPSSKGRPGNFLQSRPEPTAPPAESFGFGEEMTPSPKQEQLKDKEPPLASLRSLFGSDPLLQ

## Gag (from UniProt O93182)
  pKd: 5.41
